T1: PTP1B1-301 (Homo sapiens, UniProt P18031)
T1 construct: His6 (cleaved yes); made in house; host or cells: E. coli
T1 sequence (P18031 1-301): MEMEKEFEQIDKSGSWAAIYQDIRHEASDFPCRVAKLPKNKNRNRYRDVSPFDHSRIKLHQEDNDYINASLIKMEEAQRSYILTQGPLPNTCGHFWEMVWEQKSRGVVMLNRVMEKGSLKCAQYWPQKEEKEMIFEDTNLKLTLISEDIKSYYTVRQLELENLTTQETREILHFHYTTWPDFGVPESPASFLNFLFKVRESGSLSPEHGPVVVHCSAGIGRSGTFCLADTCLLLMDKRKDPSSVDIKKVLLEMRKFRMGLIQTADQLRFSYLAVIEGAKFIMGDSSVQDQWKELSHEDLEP


Key:
PTP1B1-301 = molecular target: T1, PTP1B1-301; test: NMR relaxation (R1, R2, hetNOE) of inhibitor-bound PTP1B1-301; conditions: 1:3 ratio of PTP1B1-301 to inhibitor, compared to apo PTP1B1-301
Experimental: Inhibitors were titrated into 200 μM ^15N-PTP1B at molar ratios of 1:1; 1:2, 1:3, 1:5 and 2D [^1H, ^15N] TROSY spectra at 850 MHz were recorded for each titration point. Inhibitors were solubilized in D6-DMSO at 25 mM. CS for PTP1B in the 2D [^1H, ^15N] TROSY spectrum caused by the addition of D6-DMSO were negligible. Chemical shift differences (Δδ) between PTP1B and inhibitor-bound PTP1B (3:1 molar ratio) spectra were calculated using: […]
Changes in motions of the domains of PTP1B1-301 bound to TCS-401 were measured by detecting nuclear relaxation time data at 500 MHz. See, FIG. 8A and FIG. 8B. Fast-timescale backbone dynamics were measured for ligand-free and inhibitor-bound (at 3:1 molar ratios) PTP1B constructs at either 850 or 500 MHz 1H Larmor frequency. ^15N longitudinal (R1) and transverse (R2) relaxation rates and ^15N [^1H]-NOE (hetNOE) measurements were acquired. The hetNOE measurements were determined from a pair of interleaved spectra acquired with or without pre-saturation, and a recycle delay of 5 seconds (only at 500 MHz ^1H Larmor frequency). Error was determined using signal to noise ratio for a given peak.

PTP1B = test: Phosphatase activity of PTP1B constructs against pNPP (enzyme assay); format: biochemical, human; conditions: pNPP substrate, pH 7.5, 0.015 μM PTP1B (FIG. 27, 32A, 32B)
Experimental: Phosphatase activity of PTP1B against the general PTP/DUSP substrate, p-nitrophenyl phosphate (pNPP), was tested in 50 mM HEPES pH 7.5, 150 mM NaCl, 0.5 mM TCEP. 40 μl of enzyme at a 1.5 μM concentration was added to 60 μl of pNPP substrate resuspended in the reaction buffer. See, FIG. 25. The final concentrations of pNPP used in this experiment were […]. The enzyme was incubated with the substrate at 30° C. for 30 min, after which 100 μl of 1 M NaOH was added to a final concentration of 0.5 M NaOH to quench the reaction. Absorbance was measured at 405 nm and the final concentration of p-nitrophenol (pNP) was calculated using the molar extinction coefficient of 18000 M-1 cm-1. A control reaction in which substrate was incubated in the absence of enzyme was subtracted from all other experimental values. All experiments were performed in triplicate.
Enzyme assays were performed at pH 7.5 with 0.15 μM PTP1B to compare the activities of wild-type PTP1B1-301 to mutants with mutations in the L11 loop: PTP1BY152A/F, PTP1BY153A/F, and PTP1BYAYA. See, FIG. 17. […] Ibid. […] Ibid. […] Ibid. […] Ibid. […] Ibid. […] Ibid.
Enzyme assays were performed at pH 7.5 with 0.015 μM PTP1B to compare the activities of wild-type PTP1B1-301 to mutants with mutations in the α3 helix such as PTP1BN193A. See, FIG. 27. […] Ibid. […] Ibid. […] Ibid. […] Ibid. […] Ibid. […] Ibid.
An enzyme assay was used to compare the activity of wild-type PTP1B1-301 to the activity of PTP1B1-284 P185G. See, FIG. 15. Enzyme assays were performed at pH 7.5 with 0.015 μM PTP1B to compare the activities of wild-type PTP1B1-301 to mutants with mutations in the α7 helix. See, FIG. 32A. In one embodiment, these point mutations were made in an amino acid sequence substantially similar to SEQ ID NO: 2.

[1] = Circular dichroism thermal denaturation (melting temperature); format: physicochemical; conditions: CD spectropolarimetry, thermal denaturation at 208 nm, 2.5 μM protein
Experimental: Circular dichroism (CD) spectropolarimetry was used to measure the melting temperatures of PTP1BYAYA, PTP1B1-301, and PTP1B1-284. CD measurements were performed on a Jasco J-815 CD spectropolarimeter. PTP1B samples were dialyzed at 4° C. into 10 mM sodium phosphate, pH 6.8, 150 mM NaCl. Samples were then diluted to a protein concentration of 2.5 μM and placed in a 0.2-cm glass cuvette. Wavelength scans were performed in the far-UV region from 260 to 195 nm at 25° C. at a speed of 20 nm/min. Thermal denaturation scans were performed at 208 nm from 25 to 90° C. at a scan speed of 1° C./min. Raw data were processed using the denatured protein analysis routine implemented in the SepctraAnalysis software and converted to mean residue molar ellipticity using the following equation: [θ]=θ/(10×C×1×n), where θ is ellipticity, C is the molar concentration, 1 is the cell path length in centimeters, and n is the number of residues. Plots are the average of three replicate scans.

Molecule	effect of inhibitor binding on PTP1B1-301 ps-ns backbone dynamics (PTP1B1-301)	Km (PTP1B) [µM]	kcat (PTP1B) [s⁻¹]	melting point (Tm) [1] [°C]
CCc1oc2cc(S(=O)(=O)Nc3ccc(S(=O)(=O)Nc4nccs4)cc3)ccc2c1C(=O)c1cc(Br)c(O)c(Br)c1 [allosteric site inhibitor, 3-(3,5-Dibromo-4-hydroxy-benzoyl)-2-ethyl-benzofuran-6-sulfonic acid-(4-(thiazol-2-ylsulfamyl)-phenyl)-amide]	minimal effect	–	–	–
O=C(O)C(=O)Nc1sc2c(c1C(=O)O)CCNC2 [TCS-401]	loss of motions in the α7 helix and part of the WPD loop	–	–	–
PTP1BL192A: PTP1B1-301 mutant with mutation in the α3 helix (protein, The sequence was designed and synthesized, PTP1B1-301 mutant with mutation in the α3 helix) MEMEKEFEQIDKSGSWAAIYQDIRHEASDFPCRVAKLPKNKNRNRYRDVSPFDHSRIKLHQEDNDYINASLIKMEEAQRSYILTQGPLPNTCGHFWEMVWEQKSRGVVMLNRVMEKGSLKCAQYWPQKEEKEMIFEDTNLKLTLISEDIKSYYTVRQLELENLTTQETREILHFHYTTWPDFGVPESPASFANFLFKVRESGSLSPEHGPVVVHCSAGIGRSGTFCLADTCLLLMDKRKDPSSVDIKKVLLEMRKFRMGLIQTADQLRFSYLAVIEGAKFIMGDSSVQDQWKELSHEDLEP	–	610 ± 40	1.86 ± 0.04	53.89
PTP1BN193A: PTP1B1-301 mutant with mutation in the α3 helix (protein, The sequence was designed and synthesized, PTP1B1-301 mutant with mutation in the α3 helix) MEMEKEFEQIDKSGSWAAIYQDIRHEASDFPCRVAKLPKNKNRNRYRDVSPFDHSRIKLHQEDNDYINASLIKMEEAQRSYILTQGPLPNTCGHFWEMVWEQKSRGVVMLNRVMEKGSLKCAQYWPQKEEKEMIFEDTNLKLTLISEDIKSYYTVRQLELENLTTQETREILHFHYTTWPDFGVPESPASFLAFLFKVRESGSLSPEHGPVVVHCSAGIGRSGTFCLADTCLLLMDKRKDPSSVDIKKVLLEMRKFRMGLIQTADQLRFSYLAVIEGAKFIMGDSSVQDQWKELSHEDLEP	–	830 ± 70	1.7 ± 0.06	49.1
